Source: PMC5362243, “A rare IL33 loss-of-function mutation reduces blood eosinophil counts and protects from asthma” (PLoS Genetics, 2017)

Biological target: T1, Human ST2-Flag-His (recombinant IL-33R, extracellular domain) (human, UniProt Q01638-1 19-328)
T1 construct: human ST2 (IL1RL1, IL-33 receptor), recombinant protein encompassing the extracellular domain; Captured on the chip through its His tag by an immobilised penta-His antibody; also called IL-33R/ST2; IL1RL1; source: prepared by Amgen
T1 sequence (looked up): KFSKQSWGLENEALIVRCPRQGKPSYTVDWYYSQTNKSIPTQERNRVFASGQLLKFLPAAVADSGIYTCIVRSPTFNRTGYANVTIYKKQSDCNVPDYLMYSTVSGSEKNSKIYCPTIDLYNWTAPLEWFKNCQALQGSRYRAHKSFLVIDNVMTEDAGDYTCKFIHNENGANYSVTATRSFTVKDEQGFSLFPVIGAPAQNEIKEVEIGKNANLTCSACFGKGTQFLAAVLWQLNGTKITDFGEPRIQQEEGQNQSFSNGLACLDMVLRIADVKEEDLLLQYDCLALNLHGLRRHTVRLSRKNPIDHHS
Test: SPR; Biacore T200, CM5 chip; human ST2-Flag-His captured by amine-coupled penta-His antibody; IL-33 variants injected at 200 nM (180 s association, 300 s dissociation); 25°C, HBS-P (10 mM HEPES pH 7.4, 150 mM NaCl, 0.05% P20); single replicate
Settings: both partners purified

- binding result: binds
B1: IL-33 (95-270), wild type cytokine domain (domain or fragment, human, UniProt O95760-1 95-270, looked up)
chain: AFGISGVQKYTRALHDSSITGISPITEYLASLSTYNDQSITFALEDESYEIYVEDLKKDEKKDKVLLSYYESQHPSNESGDGVDGKMLMVTLSPTKDFWLHANNKEHSVELHKCEKPLPDQAFFVLHNMHSNCVSFECKTDPGVFIGVKDNHLALIKVDSSENLCTENILFKLSET
notes: human interleukin-33, residues 95-270 of the 270-residue protein, released by thrombin cleavage from a poly-His fusion (pET24a); Start at residue 95 chosen after the natural processing of IL-33; also called wild type IL-33 (95–270); IL-33 (95–270) (Amgen); source: E. coli, purified (nickel HisTrap, SEC, thrombin cleavage, SEC); not shown: poly-His, N-terminal, cleaved
